According to paper PMC7046147, “Impaired DNA-binding affinity of novel PAX6 mutations”:

Key:
Experiment in all cases: ITC; ITC (iTC200) at 25 °C in buffer C (composition not given; protein stored in 25 mM Hepes pH 7.5, 150 mM NaCl, 5 mM b-ME); 20 uM protein in cell, 200 uM DNA in syringe, one-site model
PAX6 PD G72S = PAX6 PD G72S (human, UniProt P26367 4-136, G72S); details: protein: recombinant
PAX6 PD G73D = PAX6 PD G73D (human, UniProt P26367 4-136, G73D); details: protein: recombinant
PAX6 paired domain WT = PAX6 paired domain WT (human, UniProt P26367 4-136); details: protein: recombinant, tags: N-terminal His6 removed by TEV
PAX6 PD P76R = PAX6 PD P76R (human, UniProt P26367 4-136, P76R); details: protein: recombinant; 5' overhang 2 nt on each strand (AA/TT), 24 bp
PAX6 PD G64V = PAX6 PD G64V (human, UniProt P26367 4-136, G64V); details: protein: recombinant
PAX6 PD G72C = PAX6 PD G72C (human, UniProt P26367 4-136, G72C); details: protein: recombinant, tags: N-terminal His6 removed by TEV
PAX6 PD S74G = PAX6 PD S74G (human, UniProt P26367 4-136, S74G); details: protein: recombinant
[1] = 5' overhang 2 nt on each strand (AA/TT), 24 bp

Chain of PAX6 PD G72S (P26367 4-136 G72S): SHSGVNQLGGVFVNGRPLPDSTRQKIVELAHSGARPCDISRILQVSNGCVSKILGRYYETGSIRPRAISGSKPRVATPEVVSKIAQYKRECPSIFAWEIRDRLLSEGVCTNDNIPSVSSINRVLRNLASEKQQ
Chain of PAX6 PD S74G (P26367 4-136 S74G): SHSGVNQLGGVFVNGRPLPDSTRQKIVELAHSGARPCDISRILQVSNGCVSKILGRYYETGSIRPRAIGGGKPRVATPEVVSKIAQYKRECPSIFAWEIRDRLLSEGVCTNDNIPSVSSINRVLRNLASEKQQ
Chain of PAX6 PD G64V (P26367 4-136 G64V): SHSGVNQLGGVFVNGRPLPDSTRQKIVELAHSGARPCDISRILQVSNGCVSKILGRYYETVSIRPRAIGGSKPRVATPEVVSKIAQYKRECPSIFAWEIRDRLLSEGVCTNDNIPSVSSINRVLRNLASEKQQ
Chain of PAX6 PD G73D (P26367 4-136 G73D): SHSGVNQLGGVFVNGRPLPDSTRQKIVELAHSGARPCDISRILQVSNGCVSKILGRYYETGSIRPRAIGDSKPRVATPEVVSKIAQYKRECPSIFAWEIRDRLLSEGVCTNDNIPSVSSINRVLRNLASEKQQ
Chain of PAX6 PD G72C (P26367 4-136 G72C): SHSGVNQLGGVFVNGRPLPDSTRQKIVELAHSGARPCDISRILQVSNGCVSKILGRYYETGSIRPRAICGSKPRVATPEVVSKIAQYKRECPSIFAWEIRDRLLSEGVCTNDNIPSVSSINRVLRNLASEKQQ
Chain of PAX6 paired domain WT (P26367 4-136): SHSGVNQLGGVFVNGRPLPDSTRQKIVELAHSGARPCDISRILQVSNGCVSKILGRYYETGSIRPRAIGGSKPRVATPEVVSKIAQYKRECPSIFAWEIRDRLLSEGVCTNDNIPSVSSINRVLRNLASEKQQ
Chain of PAX6 PD P76R (P26367 4-136 P76R): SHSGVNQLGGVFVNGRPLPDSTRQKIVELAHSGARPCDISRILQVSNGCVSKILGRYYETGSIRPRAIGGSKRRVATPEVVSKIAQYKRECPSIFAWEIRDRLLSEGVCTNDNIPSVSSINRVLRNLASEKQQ

B1: P6B (dsDNA)
DNA 1: AAGCATTTTCACGCATGAGTGCACAG
DNA 2: TTCTGTGCACTCATGCGTGAAAATGC
Question: What does the source list for B1?
Answer: Kd (PAX6 PD G72S; [1]): 1200 ± 130 nM; Kd (PAX6 PD G73D; [1]): 489 ± 128 nM; Kd (PAX6 paired domain WT; [1]): 411 ± 68 nM; Kd (PAX6 PD P76R): 740 ± 93 nM; Kd (PAX6 PD G64V; [1]): 2520 ± 1020 nM; Kd (PAX6 PD G72C; [1]): 579 ± 370 nM; Kd (PAX6 PD S74G; [1]): 699 ± 180 nM

B2: CD19 A-ins (dsDNA)
DNA 1: GAATGGGGCACTGAGGCGTGACCACCGC
DNA 2: GCGGTGGTCACGCCTCAGTGCCCCATTC
Question: Which Kd (PAX6 PD G72S; blunt) does the source give for B2 here?
Answer: 980 ± 43 nM

Question: Does B2 bind (PAX6 PD G73D; blunt)?
Answer: no binding

Question: What about the Kd (PAX6 paired domain WT; blunt) of the same binder?
Answer: 952 ± 78 nM

Question: What about the Kd (PAX6 PD G64V; blunt) of the same binder?
Answer: 2170 ± 162 nM

Question: What about the Kd (PAX6 PD G72C; blunt) of the same binder?
Answer: 5020 ± 360 nM

Question: And the Kd (PAX6 PD S74G; blunt)?
Answer: 943 ± 31 nM

B3: P6CON (dsDNA)
DNA 1: AAATTTTCACGCTTGAGTTCACAGCT
DNA 2: AGCTGTGAACTCAAGCGTGAAAATTT
Question: B3 was tested. Which Kd (PAX6 PD G72S; blunt) did it give?
Answer: 943 ± 37 nM

Question: And the Kd (PAX6 PD G73D; blunt)?
Answer: 961 ± 48 nM

Question: And the Kd (PAX6 paired domain WT; blunt)?
Answer: 925 ± 47 nM

Question: And the Kd (PAX6 PD G64V; blunt)?
Answer: 1290 ± 78 nM

Question: And the Kd (PAX6 PD G72C; blunt)?
Answer: 1410 ± 110 nM

Question: And the Kd (PAX6 PD S74G; blunt)?
Answer: 1040 ± 45 nM
